Source: patent publication US20110071077A1, “Thrombopoietic Compounds” (AMGEN INC., priority 2006, published 2011)
Bridge positions count the residues as written; N and C are the ends. Ends that are not written are not given here. PEG = not defined here

Experiments:
human mpl receptor = target: T1, human mpl receptor (Homo sapiens, UniProt P40238); experiment: TPO in vitro bioassay, mitogenic assay in IL-3 dependent murine 32D cells; format: cell-based; conditions: for Relative Potency: in terms of EC50, numerals indicate approximately 1 log of activity
T1 construct: IL-3 dependent clone of murine 32D cells transfected with the full-length c-Mpl; expressed in transfected cells; host or cells: IL-3 dependent clone of murine 32D cells
T1 sequence (P40238 26-635): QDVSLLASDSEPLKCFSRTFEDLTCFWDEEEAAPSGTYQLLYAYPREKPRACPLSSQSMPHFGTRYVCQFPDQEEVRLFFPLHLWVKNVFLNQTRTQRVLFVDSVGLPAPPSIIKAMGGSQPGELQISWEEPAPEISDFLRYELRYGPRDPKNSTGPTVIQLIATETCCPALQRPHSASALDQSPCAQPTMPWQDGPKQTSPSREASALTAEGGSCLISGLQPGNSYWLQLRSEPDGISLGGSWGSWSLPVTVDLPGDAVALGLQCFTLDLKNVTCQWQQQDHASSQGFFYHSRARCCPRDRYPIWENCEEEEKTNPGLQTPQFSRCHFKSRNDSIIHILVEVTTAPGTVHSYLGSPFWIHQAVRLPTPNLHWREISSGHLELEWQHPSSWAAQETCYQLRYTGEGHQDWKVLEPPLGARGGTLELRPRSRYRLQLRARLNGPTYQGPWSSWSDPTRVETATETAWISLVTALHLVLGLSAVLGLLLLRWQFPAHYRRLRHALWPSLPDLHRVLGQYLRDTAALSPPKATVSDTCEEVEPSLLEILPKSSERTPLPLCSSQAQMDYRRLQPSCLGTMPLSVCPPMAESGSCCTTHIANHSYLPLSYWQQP
Protocol: Bioactivity assay. The TPO in vitro bioassay is a mitogenic assay utilizing an IL-3 dependent clone of murine 32D cells that have been transfected with human mpl receptor. This assay is described in greater detail in WO 95/26746. Cells are maintained in MEM medium containing 10% Fetal Clone II and 1 ng/ml mIL-3. Prior to sample addition, cells are prepared by rinsing twice with growth medium lacking mIL-3. An extended twelve point TPO standard curve is prepared, ranging from 3333 to 39 pg/ml. Four dilutions, estimated to fall within the linear portion of the standard curve, (1000 to 125 pg/ml), are prepared for each sample and run in triplicate. A volume of 100 μl of each dilution of sample or standard is added to appropriate wells of a 96 well microtiter plate containing 10,000 cells/well. After forty-four hours at 37° C. and 10% CO2, MTS (a tetrazolium compound which is bioreduced by cells to a formazan) is added to each well. Approximately six hours later, the optical density is read on a plate reader at 490 nm. A dose response curve (log TPO concentration vs. O.D.-Background) is generated and linear regression analysis of points which fall in the linear portion of the standard curve is performed. Concentrations of unknown test samples are determined using the resulting linear equation and a correction for the dilution factor. […]

c-Mpl receptor = target: T2, c-Mpl receptor (Homo sapiens, UniProt P40238); conditions: cited from earlier work
T2 sequence (P40238 26-635): T1 sequence (P40238 26-635)

c-Mpl = target: T3, c-Mpl (Homo sapiens, UniProt P40238); conditions: cited from earlier work
T3 sequence (P40238 26-491 limits assumed): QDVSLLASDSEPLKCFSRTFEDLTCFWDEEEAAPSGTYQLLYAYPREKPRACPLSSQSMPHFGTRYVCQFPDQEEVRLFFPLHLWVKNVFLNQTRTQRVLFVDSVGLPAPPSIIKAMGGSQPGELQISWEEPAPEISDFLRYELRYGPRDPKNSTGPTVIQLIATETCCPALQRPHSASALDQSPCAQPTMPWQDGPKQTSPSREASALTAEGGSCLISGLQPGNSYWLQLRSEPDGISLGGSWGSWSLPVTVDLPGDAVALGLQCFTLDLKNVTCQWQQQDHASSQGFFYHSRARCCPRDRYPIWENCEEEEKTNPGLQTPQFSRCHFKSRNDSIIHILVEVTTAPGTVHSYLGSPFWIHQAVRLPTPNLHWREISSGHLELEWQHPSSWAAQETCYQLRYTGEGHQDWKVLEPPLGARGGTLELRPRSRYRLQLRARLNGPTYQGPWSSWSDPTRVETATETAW

Normal female BDF1 mice = experiment: platelets in mice, 7-day micro-osmotic pumps; format: in vivo
Protocol: Mice. Normal female BDF1 approximately 10-12 weeks of age.
Bleed schedule. Ten mice per group treated on day 0, two groups started 4 days apart for a total of 20 mice per group. Five mice bled at each time point, mice were bled a minimum of three times a week. Mice were anesthetized with isoflurane and a total volume of 140-160 μl of blood was obtained by puncture of the orbital sinus. Blood was counted on a Technicon H1E blood analyzer running software for murine blood. Parameters measured were white blood cells, red blood cells, hematocrit, hemoglobin, platelets, neutrophils.
Treatments. Mice were either injected subcutaneously for a bolus treatment or implanted with 7 day micro-osmotic pumps for continuous delivery. Subcutaneous injections were delivered in a volume of 0.2 ml. Osmotic pumps were inserted into a subcutaneous incision made in the skin between the scapulae of anesthetized mice. Compounds were diluted in PBS with 0.1% BSA. All experiments included one control group, labeled “carrier” that were treated with this diluent only. The concentration of the test articles in the pumps was adjusted so that the calibrated flow rate from the pumps gave the treatment levels indicated in the graphs.
Compounds. A dose titration of the compound was delivered to mice in 7 day micro-osmotic pumps. Mice were treated with various compounds at a single dose of 100 ug/kg in 7 day osmotic pumps. Some of the same compounds were then given to mice as a single bolus injection.

Substance	Relative Potency (human mpl receptor)	in vitro bioactivity in words (human mpl receptor)	also measured
IEGPTLRQALAARA-GGGGGGGG-IEGPTLRQALAARA (IEGPTLRQALAARAGGGGGGGGIEGPTLRQALAARA) [peptide 16]	0.5	inactive	–
IEGPTLRQCLAARA-GGGGGGGG-IEGPTLRQCLAARA (IEGPTLRQCLAARAGGGGGGGGIEGPTRLQCLAARA) [compound 15]	0.5	inactive	–
IEGPTLRQWLAARA [TMP monomer, 14-residue TPO Mimetic Peptide (Cwirla et al.)]	1.0	–	EC50 (c-Mpl receptor): 400 nM; IC50 (c-Mpl): 2 nM
IEGPTLRQWLAARAARAALWQRLTPGEI [TMP C-C dimer, reference compound]	3.5	lower than that of the native TPO protein	EC50 (c-Mpl receptor): 0.1 nM; binding affinity (c-Mpl): 0.5 nM
TMP-GGGNGSGG-TMP (IEGPTLRQWLAARAGGGNGSGGIEGPTLRQWLAARA) [compound 21]	4.0	activity comparable to that of the -(Gly)8- linked analog	–
TMP-GPNG-TMP (IEGPTLRQWLAARAGPNGIEGPTLRQWLAARA) [peptide 13]	3.0	–	increase in potency as compared to the monomer (human mpl receptor): about 100 fold
TPO: native TPO protein, endogenous thrombopoietin	4.0	–	–

More lines, main results first:

Relative Potency (human mpl receptor)	Substance	in vitro bioactivity in words (human mpl receptor)	also measured
5.0	TMP-GGGC(PEG)GGGG-TMP (IEGPTLRQWLAARAGGGC(PEG)GGGGIEGPTLRQWLAARA; reading uncertain) [peptide 20]	even higher in vitro bioactivity as compared to their unpegylated counterparts	activity compared with unpegylated rHu-MGDF (Normal female BDF1 mice; 10 μg/kg/day): about equally active as 100 μg/kg/day unpegylated rHu-MGDF; activity relative to maximum (Normal female BDF1 mice; 10 μg/kg/day): about 50%; dose of maximum effect (Normal female BDF1 mice; dose response, data not shown): 100 µg/kg/day; lowest dose at which activity could be seen (Normal female BDF1 mice; mouse, in vivo): 1 µg/kg/day
4.0	TMP-GGGCGGGG-TMP (IEGPTLRQWLAARAGGGCGGGGIEGPTLRQWLAARA) [peptide 18]	–	–
5.0	TMP-GGGK(PEG)GGGG-TMP (IEGPTLRQWLAARAGGGK(PEG)GGGGIEGPTLRQWLAARA; reading uncertain) [peptide 19]	even higher in vitro bioactivity as compared to their unpegylated counterparts	–
4.0	TMP-GGGKGGGG-TMP (IEGPTLRQWLAARAGGGKGGGGIEGPTLRQWLAARA) [peptide 17a]	–	–
0.5	peptide 14: Trp in each TMP monomer replaced with Cys, intramolecular disulfide bond between the two cysteines (IEGPTLRQCLAARAGGGGGGGGIEGPTLRQCLAARA; disulfide 9-31)	inactive	–
